Data reported in a protein production outcome set (Wang et al. 2014).

Experiment: label from the status in PepcDB records
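Further: failed if final PepcDB status was selected cloned or expressed and not failed if soluble or beyond.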

Row | Sequence | protein production
1 | MIDSLLDEMTLEEQVSVLSGADFWTTVPVERLGIPKIKVTDGPNGARGGGSLVGGVKATCYPVAIALGATWNPALIEAMGVSLAGQVKSKGASVLLAPTVNIHRSGLNGRNFECYSEDPMLTAALAVAYIKGVQSQGVAATIKHFAGNESEIERQTMSSDIDERALREIYLLPFEQAVKKAGVMAVMSSYNRLNGTYTSEHNWLLTDVLREQWGFDGIVMSDWFGSHSTSESVNAGLDLEMPGPTRDRGEKLVQAVRDGTVRPETVREAAGRILTLLERVGAFSSAPDLSEHAEDLPADRALIRKIGAEGAVLLKNDNILPLEKASLKRVAVIGPNAAVARVMGGGSAQINAHYTISPLEGIRAALQGTADVQHSVACGNSRLVKLFSQPVTVEYFKGVNCQGTPVAAEAVQTGEFFWFELPSPDLSLTDFSVRFTGTFTPQEDGPHLLGMTNSGLAKLYVDGELVVDGYTDWKRGENFFGTANDEIRHSVEMKAGRSYAIKVEYLSPPPEEYGIHITAIRFGIERILGEDAMVEAVECAKGADVALLFVGREGQWDTEGLDLPDMRLPGRQEELIERVSAVNPNCIVVLQTGGPVEMPWLEKVKAVLQVWYPGQELGNAVADMLFGDQEPGGRLPQTFPKQLSDNSAITNDPSIYPGMDGHVRYEEGVFVGYRHHDSRTIEPLFPFGFGLNYTSFEWDEPKASASEMTASGVTVSVRVSNTGKRAGSDVVQLYVEAPVSGVERPLKELRAFAKIALEPGESGEVTLEINPRDLSYYDVDAAAFRAPAGDYRLLIGAHAQDIRSAITIVNPQEWLGAVGDRTI | failed
2 | MKGFNIYTDESTLVSIGDDAGVYEHNGIIWVYTVDIITPVVNDPYLWGAISTANALSDVYAMGGIPVNALAISCFNNCELDIEIFREVIRGALDKLREAKTVLLGGHTIDDKEPKFGLSVAGICPEGKYITQSGAQVGQLLILTKPIGTGILIKGLKEGILKEEDINEAIENMLALNDKARNLMLSLDATACTDVTGFGLLGHAWNICKNSNIGARIFFEKVPYYQLSENLVKKKIYPKGAIENLNFVKNYLKSNLDNWKLILLSDPVTSGGLLFTINKEKLEKIDETAKELEVNYWIIGETIAENVLEVL | not failed
3 | MGNRSTADADGLLAGRGPAAGASAGASAGLAGQGAAALVGGVLLIGAVLAGNSLVCVSVATERALQTPTNSFIVSLAAADLLLALLVLPLFVYSEVQGGAWLLSPRLCDALMAMDVMLCTASIFNLCAISVDRFVAVAVPLRYNRQGGSRRQLLLIGATWLLSAAVAAPVLCGLNDVRGRDPAVCRLEDRDYVVYSSVCSFFLPCPLMLLLYWATFRGLQRWEVARRAKLHGRAPRRPSGPGPPSPTPPAPRLPQDPCGPDCAPPAPGLPRGPCGPDCAPAAPGLPPDPCGPDCAPPAPGLPQDPCGPDCAPPAPGLPRGPCGPDCAPPAPGLPQDPCGPDCAPPAPGLPPDPCGSNCAPPDAVRAAALPPQTPPQTRRRRRAKITGRERKAMRVLPVVVGAFLLCWTPFFVVHITQALCPACSVPPRLVSAVTWLGYVNSALNPVIYTVFNAEFRNVFRKALRACC | failed
4 | MTNVRVIKPALAALVAAAACVGGLAFSSAQPAQADTYSDLINAQNQHAASVQREAELKQQLAGASQDLANKVLELDDLTNNKIVAAQAKVTQANEDAATAQDEADAASGRLSAAQKDKETLEEQIKQTGKDYDDAHAAVAQLARDEMHGSNASDVMSVVTGATSTQDFVNSMQSRDALSRNEANAASSAATSLSTSKNRGERLAAIEKQIAVLKTQSDEKAASAQTAAETAQSERDALDKLRQEGETRRNELSSMVDSLDSQSAKQAAQTVLIASQVDSYNRQFQKEQQDAANRVDTGNQGGTPSTPVTPAPAPAPAPAPAPAPAPAPAPSVGGQGTSNGDYGNAYAAGQCTYWAYERRRQMGIGTPSYLGNGGFWWRSAPAYGLRVDHTPQVGAALSFLPGQDGADGTYGHVAVVEAVYGDGTFQISEMNWGGPWNMHYRTLTNLGQYWFVH | failed
5 | MECPFVSVVVGIRNEERYIEECIESLLRLDYPQDSYEIIIVDGMSTDRTRELVQKYPVRLLLNERKNVAAARNLGVQNSMGDFVAFTDGDCKADPLWLKTLVTEMKNAPEDVVCVGGPNLIFDTDPVFGRVVGHAQETFLGSGGSAQSKNSLKKHYVSSLPNCNAMYKKNTIIEAGYFDERFVVGQDGDLNYRINKKGYKFLYIPEAIVLHHRRGTLKSFSVRMFKYGMWMGELFKKHGELVRWYAILPSVAILFSVFSLIISPVYTTPIIVLLLMGFLYLILVFIASIQVIFKMKSKYGLYALVVIPVQHITYGMGFLYSFANSLYKSKGVSSSIVQN | failed
6 | MQVPGHAFNPVAAPYFPDHLAFLDGPMNARAQGLPRRLENIVLVADLAGTAVFAVEGAISAMRAQLDLLGVMVIAFIVALGGGVTRDLLIGATPPKAVADWRYPALALLMGGLAFVARDWVLGWSGPLLILLDAAGLGLFAVAGTQKAQNFGISPFVSMLMGTVTGVGGGVIRDIVLARIPLVLQVDLYASSAFVGAASLVIARRLGVPPLWSAWLAGTVCFALRMLSVRYGWQLPKAL | failed
7 | MLELDGSGAEPLRDGDPRWIGPIPLIGRLGSGGMGRVYLGVHEGRYAAVKQLLPSVVAEDEDFLRRFGHELDNLARLPGEATAPLLAGDREARPPWFATAYVPGLTLTEALEVHGGPLPAGALWLLLREAAKGLAAVHALDMVHRDLKPSNVMLTLEGLTLIDFGVARAAEQSRLTRTGMVVGTPAYMSPEQASGRRASSGAVDVFALGSVLAYAASGRPPFGDESGHAVLYRIVHEEPDLGPLRELDPELADVVASCLDKDHEGRPTAAELLETAERHGPYEPPLWPEALTERLTERAAFVTKLPERADLPEPEPEPERDPGPGPGSAVLGRRDPGRSDHRRRHRVLFAVVPVVVAAGATLAVQLLPYTFAPGDRADASPSSSAPVSSAPAASPAGPGKASRTATPDQDRSASPSRSPGEQGDRRGDADGGGGAAGGSQGDADAGGAGSGSGSGSGSAGDGGAGAGSGAGSGDGSGSDSGSGSGADSGSGAGSGSGSGSGSGSGDGGASGSGVFTLKNAKNGRCLTTAHADAPYDGDCTGDAATWTFRSRPDGTVWIINGLLGRCIYTAAIGHPVFSFPCGRTTGQEWRVGSGGTLKNAATGGCVTVSAMSGTGVRNEACEQSAAQRWTRS | failed
8 | MKQMNVVLIGGGTGLSVLARGLREFPIDITAIVTVADNGGSTGKIRDVMDIPAPGDIRNVIAALSDSESILTQLFQYRFGENQVDGHSLGNLVIAGMTNITNDFGHAIKELSKVLNIKGQVIPSTNASVQLNAVMEDGEIVHGETNIPKTHKKIDRVFLEPSDVEPMNEAIEALEQADLIVLGPGSLYTSVISNLCVKGISEALLRTSAPKLYVSNVMTQPGETDNYDVKEHIDALTRQVGEPFIDFVICSSESYSKDVLQRYEEKNSKPVAVHKEQLKDSGIRVLTASNLVEISNEHYVRHNTKVLSKMIYELALELTSTIRFTPSDKKK | not failed
9 | MIEKKKNRSKLKREAILAAAKKAYQDDGVQNTSMDKLASLAQVSKRTVYNHFSSKEALVMELLSDLWQNSMADIDIQFSENVSIQDQLERLLLAELNVIGAQSYLDLAKVAFGHFFYKPDELQLQVEKMAEQETALSRWLQLMMDTKKLTIEDKHKAGVQLHSLLKGSAFWPQLVGMRAVLSSEEKEQLVTETADMFLSRYLKR | not failed
10 | MQGENAPQRSAEVTILDKQAIDIPHPLPGQDDQEFWIYVQKGRLGPKREFQVGIHYYHALNPGDKGVLTYQGQRFLHFALKRLEHHHHHH | not failed
11 | MHFTRALRIQLIPSFFFRAIYPLVVLLILLHAQSGLAETIYRSTDSHGRTLYSDIPTPAAKPLQPATPPARSKYRVTRVIDGDTIVLENNKRVRLLGINAPETGNRYHPGEPGGADAKKWLRGKLQGRSVYLEHDRQTHDHYKRMLAHLYLPDGEHINLSLVEKGLAIANLIPPNLLHANTLIRAQQRAETRKLGIWSMQHYQPRPLIKLTEKPFGWQRYRVKAKVLKRNHRFSRLIISDNLDLSFANRDLALFPPLETYLNRPLEVRGWVSRRKNHFSIRIQHPSALILY | failed
12 | MNHYFRAIGSMLILVYSTFFAIFFIDKVFVNIMYFQGMFYTQIFGIPVLLFLNLMVILLCIIVGSVLAYKINQQNHWLKDQIERSIEGQTVGINDQNIELYNETIELYQTLVPLNQEVHKLRMKTQNLTNESYNINDVKVKKIIEDERQRLARELHDSVSQQLFAASMMLSAIKETELKAPLDQQIPVLEKMIQDSQLEMRALLLHLRPIGLKDKSLGEGIKDLVVDLQKKVPMKVVHDIEEFKVPKGIEDHLFRITQEAISNTLRHSKGTKVTIELFNREEYLLLRIQDNGKGFNVDDKVEQSYGLKNMRERALEIGATFHIVSLPDAGTRIEVKAPLNKEDSNAD | failed
13 | MNRARDWLEQARHNLRHAQGSLGLGDYAWACFAAQQAAEAALKGLHLARGQVAWGHSILDLLADLPEDVDVPEDLVEAAKVLDKYYIPTRYPDAHPAGPAARHYTRLEAEEALDLAQKILAFVEEKL | not failed
14 | MIMFNYQQTSQSCVKCGKCIPSCTIYNIHPDEVTSPRGFIDLLGAYQRGELELDKNAKDIFEKCFLCTNCTYVCPNLLPTDQVIENVRAEIAQKFGIAWFKRAYFFLLRNRWLEHHHHHH | failed
15 | MAKNKLLRMDNVSIVVESLDNAISFFEEIGLNLEGRANVEGEWAGRVTGLGSQCVEIAMMVTPDGHSRIELSRFLTPPTIADHRTAPVNALGYLRVMFTVEDIDEMVSRLTKHGAELVGEVVQYENSYRLCYIRGVEGILIGLAEELGNK | not failed
16 | MPIGSAMSRIATSSPGHDALSDRERAVAEKFAAGLTYREIGEALFIAPSTVRTHLASIYDKLGVRNKVALASHINGAIGAGMDGPPRLPGASPVLAIFPIECQTSEERWRRFADGLSSDITIDLARYADLPVIAFHTMKSLGSKPADFAADGKALGATYVVSGQLRADERRVRLSIELADADNGVSLWSERYDRQVEDIFALQDSLTETVINVIAGSYGALATVGRKAIRRKPPASLRAYDCYLLGVEQQDTFSRAGIAEAIRLFSRALELDPTLVRAWTALAYAYSIEGANGFGDDAQVSIENWRTAVENAILLDPMDSVACNCLGDLRGCLGDLEGAERAYRRAFEYGSNHADTLAMLAGSKALVAGDPAEAMPLIERAMHLNPLAPPWYFGMLGRILFTLGRHREAIAALCRSTLNSPNVLLFLALAHTSVGEAAEAARIEARLKTEFADFSVERFITCYPVTNPDAVHAIRHAAQQLARRD | failed
17 | MALKSHLRACSRPFPRQIGRMRRRNKSLPAAFVSKRLSVLIISRKPEMKALTCMAVLAALVTGSAFAQTPPQTSTRKVDGTDNVYIFRYGGHQSMFVVTPKGVIATDPISYLRPAKPYIDAIKAVTDQPIKYVVYSHHHYDHIAGGQPFKDLGATFIAHRRTKERLLELKKQNALLADVVMPDQVVDDKKSITLGGTTLELNYVGRNHSDNSLVMRLPKEKIVFVVDFAPIESVQFRNIPDNVSPLEYIASLKKLASLDWERMIPGHPNAGGRLGTKKDVEDDIAYMEDLSAEVKKAADAGKCIDTAMKEVKLPKYEKWANYETALPANVERFCYWWGRGY | failed
18 | MGFPKLETERLQLRELTLLDAETMFHYFSKESVIRYFGMDSFENIEQAKTTIQTFKNRYEEGSVFRWGIEKKGTGQLIGTCGFHLINHHHKRAEIGYELDDTYWGQGYASEALQAILTYGFETLQLIRIAAVVYVENKASQKLLSKAGFQEEGLLRKHMIQNGVAHDTILYSLLKEEWKK | failed
19 | MKATLFVREFLLNPRTIGAILPSSDYLAEKMMASVCFEQAKYIIEYGPGTGVFTDKILRYRHPDTVVMIIEHNREFFCILNEKYQDEKNVIIINGSAEHIETYVKEHNIPFVDYIISGLPFASLPLHVSNAILNKARYLLGVKGKFITFQYTQTKVRLFTQFFNQMTVERVYRNLPPAFVFSCYNEKLEHHHHHH | not failed
20 | MVQLSLSQVHQDQIYRHGERCYPEECCGLLLGKILIGENGHRHWQVVEVQPTENCWGDVEEFQQNNHQGNKLHYFAIDPKVLLSAQKDCRQKGLSIIGIFHSHPHGQPIPSEFDRAIAWPEYIYLIASGLEHHHHHH | failed
21 | MEYKKFVEARRELNEKVLSRGTLNTKRFFNLDSAVYRPGKLDVKTKELMGLVASTVLRCDDCIRYHLVRCVQEGASDEEIFEALDIALVVGGSIVIPHLRRAVGFLEELREMEKNGETISL | not failed
